From publication doi:10.1101/2021.07.08.451689 (bioRxiv, 2021) come the findings set out here.

The data set deals with the molecule itself. Nature of the data set: SEC. (Size exclusion chromatography separates by hydrodynamic size, large species first.)

B1: MLKL N-terminal domain of 139 amino acid residues (domain or fragment, human, UniProt Q8NB16 1-139, looked up)
chain: MENLKHIITLGQVIHKRCEEMKYCKKQCRRLGHRVLGLIKPLEMLQDQGKRSVPSEKLTTAMNRFKAALEEANGEIEKFSNRSNICRFLTASQDKILFKDVNRKLSDVWKELSLLLQVEQRMPVSPISQGASWAQEDQQ
With B1, the binding result is “binds”.

B2: MLKL N-terminal domain of 154 amino acid residues with mutation D144K (domain or fragment, human, UniProt Q8NB16 1-154, looked up)
chain: MENLKHIITLGQVIHKRCEEMKYCKKQCRRLGHRVLGLIKPLEMLQDQGKRSVPSEKLTTAMNRFKAALEEANGEIEKFSNRSNICRFLTASQDKILFKDVNRKLSDVWKELSLLLQVEQRMPVSPISQGASWAQEDQQDADEKRRAFQMLRRD
B2: the binding result is recorded as “binds”.
